Holding throughout (assay): split reporter
In data set [1] the target is Rsr1 GTPase, split-YFP fusion for BiFC (YFP^N-Rsr1 / YFP^C-Rsr1) (S. cerevisiae) (UniProt P13856).
Data set [2] shares this target. The source holds these as a separate data set.
The data set “split reporter” concerns the molecule itself.

The record followed here is paper PMC2929994 (Molecular Biology of the Cell, 2010).

Read-outs that look alike come from different tables or passages of the source.

Consider “Rsr1-7^K260–264S, split-YFP fusion for BiFC (from UniProt P13856 1-272) (natural protein)”, for which the percent of unbudded cells with BiFC signal in data set [1] is less than 2%; in data set [2] it was 1.7%.

B1: Rsr1^K16N, split-YFP fusion for BiFC (natural protein, S. cerevisiae, UniProt P13856 1-272, looked up)
chain: MRDYKLVVLGAGGVGNSCLTVQFVQGVYLDTYDPTIEDSYRKTIEIDNKVFDLEILDTAGIAQFTAMRELYIKSGMGFLLVYSVTDRQSLEELMELREQVLRIKDSDRVPMVLIGNKADLINERVISVEEGIEVSSKWGRVPFYETSALLRSNVDEVFVDLVRQIIRNEMESVAVKDARNQSQQFSKIESPSTRLPSSAKQDTKQSNNKQSSKGLYNKSSQGQAKVKQSTPVNEKHKPSHAVPKSGSSNRTGISATSQQKKKKKNASTCTIL
On to B1, for which the “percent of unbudded cells with BiFC signal” value in “split reporter” turned out to be 84%.
